Measured values taken from patent US20070071681A1, “Apparatus and method for computer modeling type 1 diabetes” (Entelos, Inc., priority 2005, published 2007).

Experiments:
[1] = tested on: average virtual NOD mouse; experiment: Simulation of therapy protocols in the average virtual NOD mouse (computer model of type 1 diabetes); conditions: IL-10; Pennline 1994 protocol; at 28 wks; expectation from published data
From the text: One application of a NOD mouse type 1 diabetes model is to improve understanding of type 1 diabetes pathogenesis in the NOD mouse. Model development therefore focused on islet β cell autoimmunity and tolerance, as well as related mechanisms and interventions. To provide for general immunologic function and not only progression to diabetes, the development effort included representation of several NOD mouse phenotypes. The first phenotype was an average diabetic virtual mouse. […] Typically, a simulation of the average virtual mouse concludes shortly after diabetes diagnosis, which is consistent with post-diabetic sacrifice of NOD mice in the laboratory. […] Additional virtual mice, each with different clinical behaviors and/or underlying pathophysiologies, have also been generated. Similarly, development of modals of type 1 diabetes in other mammals, such as humans, can include the development of various virtual patients representing normal animals or animals having varying degrees of severity or progression of type 1 diabetes.
Because diabetes is typically assessed by measuring blood or urinary glucose, blood glucose levels were represented in the model's clinical read-out. Hyperglycemia (a diabetes indicator) was defined as a glucose level in excess of a commonly used standard (e.g., 200, 250, 300, 350 mg/dl). […]

NOD mouse = conditions: cited from earlier work

B1: IL-10: exogenous recombinant human IL-10 (protein, UniProt P22301 19-178, looked up)
Interleukin-10: SPGQGTQSENSCTHFPGNLPNMLRDLRDAFSRVKTFFQMKDQLDNLLLKESLLEDFKGYLGCQALSEMIQFYLEEVMPQAENQDPDIKAHVNSLGENLKTLRLRLRRCHRFLPCENKSKAVEQVKNAFNKLQEKGIYKAMSEFDIFINYIEAYMTMKIRN
Expected virtual mouse outcome [1]: No diabetes at 28 wks | Incidence (NOD mouse; IL-10, Pennline 1994, Rx 9-24 wks, 1 μg recombinant human IL-10 daily, 15 wks, at 28 wks, vs 85% control): 25% vs. 85% control at 28 wks | Insulitis (NOD mouse; IL-10, Pennline 1994): Reduced severity of insulitis | Disease progression (NOD mouse; IL-10 delivered in various ways): protect against disease progression
